Data published in publication PMC6631321 (Science signaling, 2019).
Changes are numbered by the printed parent chain. Names may count otherwise. “And” between values parts separate entries of the source, which are not always exact repeats. Equal values may be shown once.

Columns and labels:
[1] = target: the remaining proteins (α-actinin, afadin, band 4.1B, Scrib, and ZO-1); test: co-IP
RFP-ASPP2 [2] = target: T1, RFP-ASPP2 (UniProt Q13625 1-1128); test: pull-down
T1 sequence (looked up): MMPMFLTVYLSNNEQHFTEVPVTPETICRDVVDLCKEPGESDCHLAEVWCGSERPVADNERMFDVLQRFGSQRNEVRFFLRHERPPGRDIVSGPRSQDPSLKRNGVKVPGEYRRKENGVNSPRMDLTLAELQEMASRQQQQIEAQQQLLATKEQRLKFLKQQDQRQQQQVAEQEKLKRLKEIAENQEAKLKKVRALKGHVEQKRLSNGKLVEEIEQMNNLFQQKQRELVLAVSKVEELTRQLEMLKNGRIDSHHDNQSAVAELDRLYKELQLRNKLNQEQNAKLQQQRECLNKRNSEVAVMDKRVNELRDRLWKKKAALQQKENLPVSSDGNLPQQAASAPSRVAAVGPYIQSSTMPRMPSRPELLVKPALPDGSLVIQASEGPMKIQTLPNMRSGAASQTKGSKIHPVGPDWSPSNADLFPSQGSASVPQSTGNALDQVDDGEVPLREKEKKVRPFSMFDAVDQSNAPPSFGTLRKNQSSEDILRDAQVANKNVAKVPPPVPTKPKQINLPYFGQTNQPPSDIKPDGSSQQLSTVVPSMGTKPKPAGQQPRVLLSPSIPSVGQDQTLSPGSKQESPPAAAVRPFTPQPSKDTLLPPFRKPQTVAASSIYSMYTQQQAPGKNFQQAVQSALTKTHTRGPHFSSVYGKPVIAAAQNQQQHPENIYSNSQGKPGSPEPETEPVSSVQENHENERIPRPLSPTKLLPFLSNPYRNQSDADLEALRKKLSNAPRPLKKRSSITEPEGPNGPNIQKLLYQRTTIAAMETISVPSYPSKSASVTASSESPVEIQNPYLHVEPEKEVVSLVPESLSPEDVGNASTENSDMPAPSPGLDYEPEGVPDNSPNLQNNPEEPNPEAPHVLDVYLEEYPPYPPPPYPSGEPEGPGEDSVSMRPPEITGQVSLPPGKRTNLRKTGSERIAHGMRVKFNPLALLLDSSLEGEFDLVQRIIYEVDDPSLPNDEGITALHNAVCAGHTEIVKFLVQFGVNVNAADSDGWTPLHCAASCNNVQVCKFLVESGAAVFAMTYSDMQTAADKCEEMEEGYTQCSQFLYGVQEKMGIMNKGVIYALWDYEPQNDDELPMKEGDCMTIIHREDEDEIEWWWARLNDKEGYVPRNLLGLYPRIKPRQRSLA

RFP-Lats1 [3] = target: T2, RFP-Lats1 (UniProt O95835 1-1130); test: pull-down
T2 sequence (looked up): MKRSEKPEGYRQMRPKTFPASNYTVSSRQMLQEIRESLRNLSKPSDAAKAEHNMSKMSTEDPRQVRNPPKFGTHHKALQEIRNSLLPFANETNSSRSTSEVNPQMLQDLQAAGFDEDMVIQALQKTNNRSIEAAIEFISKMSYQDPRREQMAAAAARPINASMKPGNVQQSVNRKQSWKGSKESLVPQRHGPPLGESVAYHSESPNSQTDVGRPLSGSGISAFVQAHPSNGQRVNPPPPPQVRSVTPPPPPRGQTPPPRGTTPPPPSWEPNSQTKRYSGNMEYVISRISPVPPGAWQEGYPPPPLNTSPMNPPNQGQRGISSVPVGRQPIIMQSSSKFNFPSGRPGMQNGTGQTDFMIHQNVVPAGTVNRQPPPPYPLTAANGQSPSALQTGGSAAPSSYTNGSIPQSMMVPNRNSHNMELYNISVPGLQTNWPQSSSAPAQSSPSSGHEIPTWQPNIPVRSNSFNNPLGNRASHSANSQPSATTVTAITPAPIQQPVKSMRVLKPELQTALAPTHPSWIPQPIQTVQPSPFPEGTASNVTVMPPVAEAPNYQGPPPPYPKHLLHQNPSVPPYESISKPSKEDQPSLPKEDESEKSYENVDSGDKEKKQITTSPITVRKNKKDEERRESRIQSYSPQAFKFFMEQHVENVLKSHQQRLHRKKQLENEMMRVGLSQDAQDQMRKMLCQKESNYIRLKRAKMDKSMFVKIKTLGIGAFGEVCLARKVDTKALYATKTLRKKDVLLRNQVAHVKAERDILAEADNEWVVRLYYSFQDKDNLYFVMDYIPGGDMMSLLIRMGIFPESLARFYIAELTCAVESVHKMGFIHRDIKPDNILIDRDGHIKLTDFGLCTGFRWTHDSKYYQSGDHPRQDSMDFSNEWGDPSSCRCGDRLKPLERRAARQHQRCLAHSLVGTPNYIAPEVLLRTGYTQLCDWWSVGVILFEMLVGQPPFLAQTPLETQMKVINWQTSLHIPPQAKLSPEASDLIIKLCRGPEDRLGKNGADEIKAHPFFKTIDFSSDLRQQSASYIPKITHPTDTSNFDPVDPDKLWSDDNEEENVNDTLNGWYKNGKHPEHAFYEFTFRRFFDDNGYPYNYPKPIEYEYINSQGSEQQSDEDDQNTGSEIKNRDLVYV

RFP-Angiomotin, Q4VCS5 [4] = test: pull-down; settings: remark: other sources report otherwise
Sequence of RFP-Angiomotin, Q4VCS5 (Q4VCS5 whole entry): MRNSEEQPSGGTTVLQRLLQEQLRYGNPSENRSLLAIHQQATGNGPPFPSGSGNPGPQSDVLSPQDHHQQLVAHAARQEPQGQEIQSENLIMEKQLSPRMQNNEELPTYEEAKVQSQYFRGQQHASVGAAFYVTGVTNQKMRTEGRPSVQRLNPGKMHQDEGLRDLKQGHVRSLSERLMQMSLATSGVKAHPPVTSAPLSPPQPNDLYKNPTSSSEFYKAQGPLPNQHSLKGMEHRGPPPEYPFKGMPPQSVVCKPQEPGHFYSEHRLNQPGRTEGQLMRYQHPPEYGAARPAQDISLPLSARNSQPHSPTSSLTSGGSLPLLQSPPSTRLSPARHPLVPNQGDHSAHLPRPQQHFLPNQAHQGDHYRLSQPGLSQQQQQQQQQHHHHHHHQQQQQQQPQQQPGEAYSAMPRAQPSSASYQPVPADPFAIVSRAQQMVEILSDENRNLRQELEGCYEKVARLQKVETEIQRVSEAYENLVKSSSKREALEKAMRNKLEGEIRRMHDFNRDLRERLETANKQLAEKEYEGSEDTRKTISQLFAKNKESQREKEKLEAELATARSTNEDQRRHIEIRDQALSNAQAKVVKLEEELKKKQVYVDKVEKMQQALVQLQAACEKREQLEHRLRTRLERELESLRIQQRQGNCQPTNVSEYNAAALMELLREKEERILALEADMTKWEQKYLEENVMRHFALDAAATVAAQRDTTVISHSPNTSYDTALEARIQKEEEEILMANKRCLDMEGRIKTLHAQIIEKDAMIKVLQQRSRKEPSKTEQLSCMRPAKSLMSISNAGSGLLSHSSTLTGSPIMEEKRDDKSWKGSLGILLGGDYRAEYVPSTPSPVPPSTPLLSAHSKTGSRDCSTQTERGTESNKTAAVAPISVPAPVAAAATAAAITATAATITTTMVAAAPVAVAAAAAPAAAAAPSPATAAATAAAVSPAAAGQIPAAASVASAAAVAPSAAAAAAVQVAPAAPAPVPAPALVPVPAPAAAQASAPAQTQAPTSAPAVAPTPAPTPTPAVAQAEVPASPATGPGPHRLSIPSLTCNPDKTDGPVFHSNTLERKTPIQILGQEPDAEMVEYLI

RFP-Lats1 [5] = target: T2, RFP-Lats1; test: co-IP
RFP-Angiomotin, Q4VCS5 [6] = test: co-IP; settings: remark: other sources report otherwise
RFP-ASPP2 [7] = target: T1, RFP-ASPP2; test: pull-down; remark: listed apart in the source

Molecule: Merlin-NLuc (from UniProt P35240 1-595) (natural protein)
- fold over the negative control (RFP alone), co-precipitated luciferase [1]: 2 fold and 5 fold

B1: Merlin-NLuc (natural protein, UniProt P35240 1-595, looked up)
chain: MAGAIASRMSFSSLKRKQPKTFTVRIVTMDAEMEFNCEMKWKGKDLFDLVCRTLGLRETWFFGLQYTIKDTVAWLKMDKKVLDHDVSKEEPVTFHFLAKFYPENAEEELVQEITQHLFFLQVKKQILDEKIYCPPEASVLLASYAVQAKYGDYDPSVHKRGFLAQEELLPKRVINLYQMTPEMWEERITAWYAEHRGRARDEAEMEYLKIAQDLEMYGVNYFAIRNKKGTELLLGVDALGLHIYDPENRLTPKISFPWNEIRNISYSDKEFTIKPLDKKIDVFKFNSSKLRVNKLILQLCIGNHDLFMRRRKADSLEVQQMKAQAREEKARKQMERQRLAREKQMREEAERTRDELERRLLQMKEEATMANEALMRSEETADLLAEKAQITEEEAKLLAQKAAEAEQEMQRIKATAIRTEEEKRLMEQKVLEAEVLALKMAEESERRAKEADQLKQDLQEAREAERRAKQKLLEIATKPTYPPMNPIPAPLPPDIPSFNLIGDSLSFDFKDTDMKRLSMEIEKEKVEYMEKSKHLQEQLNELKTEIEALKLKERETALDILHNENSDRGGSSKHNTIKKLTLQSAKSRVAFFEEL
- fold over the negative control (RFP alone), bound luciferase (RFP-ASPP2 [2]): 125 fold
- fold over the negative control (RFP alone), bound luciferase (RFP-Lats1 [3]): 268 fold
- fold over the negative control (RFP alone), bound luciferase (RFP-Angiomotin, Q4VCS5 [4]): 2300 fold
- fold over the negative control (RFP alone), co-precipitated luciferase (RFP-Lats1 [5]): > 20 fold
- fold over the negative control (RFP alone), co-precipitated luciferase (RFP-Angiomotin, Q4VCS5 [6]): 100 fold

B2: Merlin S518A (natural protein, UniProt P35240 1-595, looked up)
chain: B1 chain with S518A
- fold greater than binding to wild-type Merlin (RFP-ASPP2 [7]): ~2 fold

B3: Merlin S518D (natural protein, UniProt P35240 1-595, looked up)
chain: B1 chain with S518D
- fold less than binding to wild-type Merlin (RFP-ASPP2 [7]): > 2 fold
